From article PMC11371828 (Nature Communications, 2024) come the findings set out here.

The target of experiment [1] is T1, 6xHis-IKKβ(1-669) EE R460E (human, UniProt O14920 1-669, S177E | S181E | R460E).
T1 sequence (looked up): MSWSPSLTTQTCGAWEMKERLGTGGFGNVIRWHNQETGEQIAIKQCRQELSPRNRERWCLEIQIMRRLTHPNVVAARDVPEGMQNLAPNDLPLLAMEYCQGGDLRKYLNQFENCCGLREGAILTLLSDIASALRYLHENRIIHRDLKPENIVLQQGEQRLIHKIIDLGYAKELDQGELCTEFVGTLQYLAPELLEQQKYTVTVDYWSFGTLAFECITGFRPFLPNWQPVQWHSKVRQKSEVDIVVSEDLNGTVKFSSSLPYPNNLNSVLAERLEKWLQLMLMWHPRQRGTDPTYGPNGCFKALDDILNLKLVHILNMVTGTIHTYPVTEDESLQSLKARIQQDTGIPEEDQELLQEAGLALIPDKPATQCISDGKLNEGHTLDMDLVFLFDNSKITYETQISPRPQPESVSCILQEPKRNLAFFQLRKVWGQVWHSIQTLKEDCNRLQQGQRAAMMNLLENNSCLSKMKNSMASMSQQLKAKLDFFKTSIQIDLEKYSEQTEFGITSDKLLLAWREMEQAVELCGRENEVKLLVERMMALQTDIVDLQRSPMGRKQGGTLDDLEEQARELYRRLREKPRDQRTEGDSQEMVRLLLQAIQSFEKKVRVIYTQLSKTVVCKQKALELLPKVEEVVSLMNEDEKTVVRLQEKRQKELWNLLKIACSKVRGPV
The experiment in a line: pull-down.

In experiment [2] the target is T2, 6xHis-IKKβ(1-669) EE M475A (human, UniProt O14920 1-669, S177E | S181E | M475A).
T2 sequence (looked up): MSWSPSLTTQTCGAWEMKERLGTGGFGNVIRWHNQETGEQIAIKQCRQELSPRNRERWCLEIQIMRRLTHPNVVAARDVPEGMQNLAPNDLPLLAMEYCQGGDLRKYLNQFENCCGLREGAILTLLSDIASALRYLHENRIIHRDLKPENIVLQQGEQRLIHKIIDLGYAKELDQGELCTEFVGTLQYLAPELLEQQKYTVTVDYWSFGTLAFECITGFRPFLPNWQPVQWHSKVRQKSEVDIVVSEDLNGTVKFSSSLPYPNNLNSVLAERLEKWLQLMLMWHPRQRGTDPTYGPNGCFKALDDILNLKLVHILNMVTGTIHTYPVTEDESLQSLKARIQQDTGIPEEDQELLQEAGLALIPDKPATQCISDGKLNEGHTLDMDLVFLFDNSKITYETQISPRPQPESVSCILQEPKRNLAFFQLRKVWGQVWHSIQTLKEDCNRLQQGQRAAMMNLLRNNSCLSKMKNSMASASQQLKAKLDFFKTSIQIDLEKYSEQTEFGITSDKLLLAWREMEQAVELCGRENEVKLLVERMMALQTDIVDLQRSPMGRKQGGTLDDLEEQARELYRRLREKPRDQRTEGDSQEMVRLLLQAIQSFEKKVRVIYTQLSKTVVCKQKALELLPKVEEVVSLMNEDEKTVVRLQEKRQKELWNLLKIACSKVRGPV
The experiment in a line: pull-down.

B1: MBP-IκBα pep(s) (peptide, UniProt P25963 301-317, looked up)
chain: DELPYDDCVFGGQRLTL
For the molecule B1, the binding result in experiment [1] and in experiment [2] was “binds” each time.
